Assay results taken from the supplement of paper PMC9732359.
± gives the uncertainty stated by the source.

Assay: protein stability index of a GFP-peptide fusion (yeast GPS) (PSI 1-4); higher = more stable; sorted into four equal gates, so the index is relative within each strain
In short: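 Sequencing reads from sorted gates were used to score each peptide. The library consisted of tiled 17-residue yeast protein peptides fused downstream of GFP on a Cherry-expressing plasmid, pooled and carried in yeast. Mid-log cultures in leucine-free medium were split into four equal gates by GFP/Cherry ratio, and each gate's plasmids were PCR-amplified and Illumina-sequenced. The protein stability index adds up, over all gates, the read frequency multiplied by the gate number.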

| Sequence | protein stability index (doa10∆) | protein stability index (pdr5∆) | protein stability index (san1∆) | protein stability index (ubr1∆) |
| --- | --- | --- | --- | --- |
| ISLIPELSVVLSGIIQD [RRI2] | 1.75 ± 0.077 | 1.76 ± 0.09 | 1.96 ± 0.12 | 1.99 ± 0.064 |
| ISLLKNRRKQSFVLNKN [RPN4] | 3.52 ± 0.25 | 3.06 ± 0.25 | 3.04 ± 0.15 | 3.21 ± 0.14 |
| ISLRNNMFELAQQLVGV [SMC4] | 1.24 ± 0.089 | 1.74 ± 0.079 | 1.78 ± 0.093 | 1.87 ± 0.084 |
| ISLSFSRPASYGYFSVG [SIR4] | 1.78 ± 0.073 | 1.82 ± 0.06 | 1.81 ± 0.11 | 2.07 ± 0.052 |
| ISLYFNDILDELLCGMA [ECM29] | 1.64 ± 0.1 | 1.81 ± 0.069 | 2.04 ± 0.18 | 1.48 ± 0.06 |
| ISMNAPVFVDLEGETDP [RPO26] | – | 2.78 ± 0.3 | – | 3 ± 0.19 |
| ISNGTINIQKKLEPKEI [SIR4] | 2.77 ± 0.079 | 2.89 ± 0.075 | 2.37 ± 0.089 | 3 ± 0.1 |
| ISNLTQEQVQDYVNKTN [FAS1] | 2.34 ± 0.047 | 2.81 ± 0.043 | 2.82 ± 0.057 | 2.27 ± 0.033 |
| ISSAKLDKFTDGGLFTL [QCR2] | 2.42 ± 0.13 | 3.06 ± 0.15 | 3.23 ± 0.088 | 3.21 ± 0.14 |
| ISSLFTITTILILGLNT [YML103C/NUP188] | 1.51 ± 0.078 | 1.75 ± 0.094 | 1.46 ± 0.2 | 1.75 ± 0.065 |
| ISSPIVANSPNKRLDVI [YDL088C/ASM4] | 2.71 ± 0.23 | 2.88 ± 0.14 | – | 2.85 ± 0.13 |
| ISTPIINAVLVNDNDER [RPO31] | 2.25 ± 0.085 | 2.22 ± 0.1 | 2.31 ± 0.12 | 2.21 ± 0.086 |
| ISVGESGDRLTRASKVL [RPL11A] | – | 3.08 ± 0.19 | – | 3.4 ± 0.22 |
| ISYLQEVQCTSTPYLEI [PCI8] | 2.68 ± 0.16 | – | 1.7 ± 0.2 | 1.81 ± 0.22 |
| ITKMLASDESLLRYGGA [RPN2] | 3.28 ± 0.11 | 3.41 ± 0.17 | 3.23 ± 0.11 | 3.82 ± 0.22 |
| ITLLTRQRELLIAHQRS [GRR1] | 2.18 ± 0.039 | 2.14 ± 0.038 | 2.01 ± 0.045 | 1.89 ± 0.029 |
| ITLRTSGELLQGIVRVY [MCD1] | 2.96 ± 0.075 | 2.9 ± 0.063 | 2.48 ± 0.066 | 3.12 ± 0.057 |
| ITNKHQEGLAKFGACVA [RPN2] | 1.78 ± 0.054 | 1.97 ± 0.038 | 2.54 ± 0.092 | 2.51 ± 0.035 |
| ITSDALEGITTTIDSLN [SMC3] | 2.45 ± 0.062 | 2.93 ± 0.084 | 2.9 ± 0.08 | 2.99 ± 0.07 |
| ITSIPKPLTENCKKKKK [RMP1] | 2.84 ± 0.12 | 2.75 ± 0.12 | 2.05 ± 0.085 | 2.99 ± 0.095 |
| ITVVPVVAAAEDDDNEQ [QCR6] | 1.61 ± 0.068 | 2.04 ± 0.064 | 1.72 ± 0.12 | 1.89 ± 0.036 |
| IVAAGGGSGAATFSVSQ [CSL4] | – | 3.47 ± 0.2 | – | – |
| IVAALPISEKGLTLSTT [RPP1] | 2.11 ± 0.087 | 2.61 ± 0.063 | 2.65 ± 0.057 | 2.48 ± 0.094 |
| IVDDKQEMIDILETIFR [DIB1] | 2.98 ± 0.1 | 3.17 ± 0.13 | 3.02 ± 0.22 | 2.75 ± 0.18 |
| IVDGKLKTEKIFKEINE [FAS1] | 1.76 ± 0.074 | 1.85 ± 0.13 | 1.91 ± 0.11 | 1.91 ± 0.091 |
| IVFDICQILDGELDVLQ [PRP8] | 2.7 ± 0.11 | 2.63 ± 0.11 | 2.39 ± 0.1 | 3.07 ± 0.11 |

| Sequence | protein stability index (doa10∆) | protein stability index (pdr5∆) | protein stability index (san1∆) | protein stability index (ubr1∆) |
| --- | --- | --- | --- | --- |
| IVKFKQKEEGRSFTKAI [YLR335W/NUP2] | 3.13 ± 0.069 | 3.09 ± 0.066 | 3.24 ± 0.05 | 3.29 ± 0.047 |
| IVLGVKDLQENLLVLRG [RPO21] | 1.43 ± 0.078 | 1.35 ± 0.057 | 2.87 ± 0.059 | 1.5 ± 0.071 |
| IVLIKGISSAYIKSATL [SNU114] | 1.92 ± 0.087 | 2.05 ± 0.069 | 2.5 ± 0.07 | 2.52 ± 0.064 |
| IVPGTYIQERNPTQRPQ [RPS10A] | 3.01 ± 0.054 | 3.08 ± 0.043 | 3.05 ± 0.037 | 3.12 ± 0.034 |
| IWFPEDFISPELIIDKV [MED1] | 2.68 ± 0.068 | 2.66 ± 0.069 | 3.01 ± 0.075 | 2.94 ± 0.044 |
| IWLIKCCYFIEWKSNHK [SRB8] | 1.69 ± 0.067 | 2.12 ± 0.063 | 2.55 ± 0.063 | 2.59 ± 0.15 |
| IWLKDFIAVGQILPESQ [SIR3] | – | 2.37 ± 0.28 | – | – |
| IWNDVVYGEGTSRVTGI [YJL039C/NUP192] | 3.35 ± 0.15 | 3.4 ± 0.17 | – | 3.45 ± 0.091 |
| IYAKQQEQLKQMDQQLQ [ARP7] | 1.76 ± 0.066 | 2.05 ± 0.079 | 2.2 ± 0.1 | 2.7 ± 0.072 |
| IYINKSVPTNSADAPNP [RET1] | 3.19 ± 0.08 | 3.2 ± 0.061 | 3.31 ± 0.049 | 3.29 ± 0.052 |
| IYNGKAFNQVEIRPEML [RPS15] | 2.9 ± 0.12 | 3.04 ± 0.18 | 3.39 ± 0.11 | 3.26 ± 0.14 |
| IYNSTDSNSEILNFLNQ [YML103C/NUP188] | 3.1 ± 0.2 | 2.72 ± 0.067 | 2.71 ± 0.055 | 2.9 ± 0.076 |
| IYPRTVIDIEIHVLEQD [SKI6] | 1.42 ± 0.055 | 1.88 ± 0.049 | 1.6 ± 0.15 | 1.83 ± 0.041 |
| IYQIHIPYAAKLLFQEL [RPB2] | 2.64 ± 0.12 | 1.98 ± 0.12 | – | 2.88 ± 0.077 |
| KAANFIQNQSPQFNSPY [SWI1] | 1.99 ± 0.061 | 1.71 ± 0.046 | 2.37 ± 0.065 | 2.42 ± 0.058 |
| KACKTADKLVNVTQNEQ [SRP68] | 3.02 ± 0.13 | 3.04 ± 0.095 | 3 ± 0.073 | 3.07 ± 0.07 |
| KAEFSKEMTLQKNMNDL [YIL149C/MLP2] | 3.21 ± 0.053 | 3.3 ± 0.086 | 3.23 ± 0.09 | 3.07 ± 0.067 |
| KAEKKVELHGKRKLDIG [PRP8] | – | 2.8 ± 0.17 | 3.13 ± 0.16 | – |
| KAELIKPIQNGEIIDIS [ARP9] | 3.31 ± 0.087 | 3.02 ± 0.1 | 3.33 ± 0.067 | 2.92 ± 0.092 |
| KAGGECITLDQLAVRAP [RPL18A] | 2.1 ± 0.097 | 2.29 ± 0.085 | 2.86 ± 0.072 | 2.57 ± 0.077 |
| KAINQELEDVAVKKLYA [YCS4] | 3.26 ± 0.17 | 3.23 ± 0.13 | 2.72 ± 0.07 | 2.94 ± 0.08 |
| KAKKLIQSLPPTLKVNR [RPL38] | 2.13 ± 0.039 | 2.18 ± 0.039 | 2.02 ± 0.048 | 2.27 ± 0.036 |
| KAKRAKTGSASTVKGSV [TAF14] | 2.9 ± 0.11 | 2.66 ± 0.24 | 2.77 ± 0.16 | 3.16 ± 0.083 |
| KAKRSNLYTPKAEMPPE [PRP8] | 2.98 ± 0.084 | 3.05 ± 0.081 | 2.84 ± 0.063 | 2.89 ± 0.077 |
| KAMSSRAGVSQVLNRYT [RPB2] | 3.17 ± 0.11 | 3.21 ± 0.096 | 2.97 ± 0.073 | 3.29 ± 0.053 |
| KANEKKESDESKSAFSF [YJL041W/NSP1] | 2.95 ± 0.099 | 3.4 ± 0.07 | 3.18 ± 0.042 | 3.12 ± 0.043 |
